{"source": "patent US7186551B1", "about": "“3′-phosphoadenosine -5′-phosphosulfate synthetase 2 (PAPSS2) sequence variants” (Mayo Foundation for Medical Education and Research, priority 2001, dated 2007)", "molecules": {"B1": {"name": "wild type: reference human PAPSS2 polypeptide (SEQ ID NO:9, GenBank AF091242), recombinantly expressed in COS-1 cells (protein, listed as Homo sapiens)", "chain": "MSGIKKQKTENQQKSTNVVYQAHHVSRNKRGQVVGTRGGFRGCTVWLTGLSGAGKTTISFALEEYLVSHAIPCYSLDGDNVRHGLNRNLGFSPGDREENIRRIAEVAKLFADAGLVCITSFISPFAKDRENARKIHESAGLPFFEIFVDAPLNICESRDVKGLYKRARAGEIKGFTGIDSDYEKPETPERVLKTNLSTVSDCVHQVVELLQEQNIVPYTIIKDIHELFVPENKLDHVRAEAETLPSLSITKLDLQWVQVLSEGWATPLKGFMREKEYLQVMHFDTLLDDGVINMSIPIVLPVSAEDKTRLEGCSKFVLAHGGRRVAILRDAEFYEHRKEERCSRVWGTTCTKHPHIKMVMESGDWLVGGDLQVLEKIRWNDGLDQYRLTPLELKQKCKEMNADAVFAFQLRNPVHNGHALLMQDTCRRLLERGYKHPVLLLHPLGGWTKDDDVPLDWRMKQHAAVLEEGVLDPKSTIVAIFPSPMLYAGPTEVQWHCRSRMIAGANFYIVGRDPAGMPHPETKKDLYEPTHGGKVLSMAPGLTSVEIIPFRVAAYNKAKKAMDFYDPARHNEFDFISGTRMRKLAREGENPPDGFMAPKAWKVLTDYYRSLEKN"}}, "system": "PAPSS2", "assay": "Substrate kinetic studies of recombinant PAPSS2 with ATP and Na2SO4", "format": "biochemical, human", "method": "To estimate apparent Km values of PAPSS2 for the two reaction cosubstrates, a series of ATP (0.125–4 mM) and Na2SO4 (0.125–16 mM) concentrations were tested with the recombinant allozymes. When ATP was the varied substrate, the concentration of Na2SO4 was 4 mM, and when Na2SO4 was the varied substrate, the concentration of ATP was 1 mM. Blanks for each substrate concentration were included by assaying COS-1 cell cytosol after transfection with empty vector.\nData Analysis: Apparent Km values were calculated by using the method of Wilkinson with a computer program written by Cleland. Wilkinson, Biochem. J., 80:324–332 (1961); and Cleland, Nature, 198:[…] (1963). Statistical comparisons of data were performed by ANOVA with the StatView program, version 4.5 (Abacus Concepts, Inc., Berkeley, Calif.). Apparent Km, S50 and Vmax values for the wild-type and variant PAPSS2 allozymes were compared by the use of unpaired Student's t-test.\nAlterations in amino acid sequence can alter enzyme substrate affinity and/or catalytic efficiency. Decreased activity of the Val291Met allozyme—without a significant alteration in level of enzyme protein—could have resulted from a change in substrate kinetics. Therefore, a series of ATP (0.125–4 mM) and Na2SO4 (0.125–16 mM) concentrations were used to estimate apparent Km values for recombinant wild type PAPSS2 and for the Val291Met variant allozyme. […] ATP concentrations at which 50% maximal velocity was achieved (S50 values) were 0.70 and 0.95 mM for the wild type and variant allozymes, respectively (Table 4). In both cases, the Hill coefficient was greater than 2, […]. In contrast, substrate kinetics of both allozymes for Na2SO4 conformed to Michaelis-Menten predictions (FIG. 5B). […] In summary, decreased activity for the Val1291Met variant appeared to result from an alteration in substrate kinetics, while decreased activity for the Glu10Lys allozyme, in contrast, resulted primarily from a decrease in the quantity of enzyme protein. Because the Val291Met variant was encoded by a construct that contained the most common PAPSS2 nonsynonymous cSNP, these observations could have functional implications for the sulfate conjugation of both endogenous and/or exogenous compounds.", "key": {"[1]": {"settings": "ATP varied 0.125-4 mM, Na2SO4 4 mM, listed as Wild Type"}}}
{"molecule": "B1", "values": [{"measurement": "S50 for ATP (ATP concentration at which 50% maximal velocity was achieved)", "setting": "ATP varied 0.125-4 mM, Na2SO4 4 mM", "value": 0.70, "unit": "mM"}, {"measurement": "Hill coefficient, ATP", "setting": "[1]", "value": "5.4 ± 0.1"}, {"measurement": "S50 for ATP (ATP concentration at which 50% maximal velocity was achieved)", "setting": "[1]", "value": "0.70 ± 0.01", "unit": "mM"}, {"measurement": "Km", "setting": "apparent Km, Na2SO4 varied 0.125-16 mM, ATP 1 mM", "value": 870, "unit": "µM"}, {"measurement": "Vmax/S50, ATP", "setting": "ratio, wild type = 100, ATP as varied substrate", "value": 100}, {"measurement": "Vmax, ATP", "setting": "relative Vmax, wild type = 100, ATP as varied substrate", "value": 100}, {"measurement": "Vmax, Na2SO4", "setting": "relative Vmax, wild type = 100, Na2SO4 as varied substrate", "value": 100}]}
